B1: Galactose-1-phosphate uridylyltransferase (Homo sapiens), P07902 (parent)
chain: MSRSGTDPQQRQQASEADAAAATFRANDHQHIRYNPLQDEWVLVSAHRMKRPWQGQVEPQLLKTVPRHDPLNPLCPGAIRANGEVNPQYDSTFLFDNDFPALQPDAPSPGPSDHPLFQAKSARGVCKVMCFHPWSDVTLPLMSVPEIRAVVDAWASVTEELGAQYPWVQIFENKGAMMGCSNPHPHCQVWASSFLPDIAQREERSQQAYKSQHGEPLLMEYSRQELLRKERLVLTSEHWLVLVPFWATWPYQTLLLPRRHVRRLPELTPAERDDLASIMKKLLTKYDNLFETSFPYSMGWHGAPTGSEAGANWNHWQLHAHYYPPLLRSATVRKFMVGYEMLAQAQRDLTPEQAAERLRALPEVHYHLGQKDRETATIA
B2: X-linked retinitis pigmentosa GTPase regulator (Homo sapiens), Q92834 (parent)
chain: MREPEELMPDSGAVFTFGKSKFAENNPGKFWFKNDVPVHLSCGDEHSAVVTGNNKLYMFGSNNWGQLGLGSKSAISKPTCVKALKPEKVKLAACGRNHTLVSTEGGNVYATGGNNEGQLGLGDTEERNTFHVISFFTSEHKIKQLSAGSNTSAALTEDGRLFMWGDNSEGQIGLKNVSNVCVPQQVTIGKPVSWISCGYYHSAFVTTDGELYVFGEPENGKLGLPNQLLGNHRTPQLVSEIPEKVIQVACGGEHTVVLTENAVYTFGLGQFGQLGLGTFLFETSEPKVIENIRDQTISYISCGENHTALITDIGLMYTFGDGRHGKLGLGLENFTNHFIPTLCSNFLRFIVKLVACGGCHMVVFAAPHRGVAKEIEFDEINDTCLSVATFLPYSSLTSGNVLQRTLSARMRRRERERSPDSFSMRRTLPPIEGTLGLSACFLPNSVFPRCSERNLQESVLSEQDLMQPEEPDYLLDEMTKEAEIDNSSTVESLGETTDILNMTHIMSLNSNEKSLKLSPVQKQKKQQTIGELTQDTALTENDDSDEYEEMSEMKEGKACKQHVSQGIFMTQPATTIEAFSDEEVGNDTGQVGPQADTDGEGLQKEVYRHENNNGVDQLDAKEIEKESDGGHSQKESEAEEIDSEKETKLAEIAGMKDLREREKSTKKMSPFFGNLPDRGMNTESEENKDFVKKRESCKQDVIFDSERESVEKPDSYMEGASESQQGIADGFQQPEAIEFSSGEKEDDEVETDQNIRYGRKLIEQGNEKETKPIISKSMAKYDFKCDRLSEIPEEKEGAEDSKGNGIEEQEVEANEENVKVHGGRKEKTEILSDDLTDKAEDHEFSKTEELKLEDVDEEINAENVESKKKTVGDDESVPTGYHSKTEGAERTNDDSSAETIEKKEKANLEERAICEYNENPKGYMLDDADSSSLEILENSETTPSKDMKKTKKIFLFKRVPSINQKIVKNNNEPLPEIKSIGDQIILKSDNKDADQNHMSQNHQNIPPTNTERRSKSCTIL
partner: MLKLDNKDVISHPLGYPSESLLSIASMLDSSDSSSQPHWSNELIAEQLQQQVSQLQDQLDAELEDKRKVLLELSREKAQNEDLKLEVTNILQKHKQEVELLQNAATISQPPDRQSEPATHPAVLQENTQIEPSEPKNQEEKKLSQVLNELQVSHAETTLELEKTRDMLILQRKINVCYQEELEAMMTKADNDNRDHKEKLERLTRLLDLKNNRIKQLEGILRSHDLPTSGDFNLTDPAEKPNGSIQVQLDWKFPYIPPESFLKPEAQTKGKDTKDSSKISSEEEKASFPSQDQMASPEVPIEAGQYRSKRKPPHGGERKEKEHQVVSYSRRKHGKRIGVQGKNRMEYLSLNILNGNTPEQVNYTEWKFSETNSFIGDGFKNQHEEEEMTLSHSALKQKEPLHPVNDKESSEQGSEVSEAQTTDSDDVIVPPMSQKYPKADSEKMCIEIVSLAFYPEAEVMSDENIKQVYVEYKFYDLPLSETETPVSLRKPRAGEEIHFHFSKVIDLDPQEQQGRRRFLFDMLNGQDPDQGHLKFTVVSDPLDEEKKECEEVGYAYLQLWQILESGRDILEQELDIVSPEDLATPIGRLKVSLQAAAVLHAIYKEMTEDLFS
B3: EGF-containing fibulin-like extracellular matrix protein 1 (Homo sapiens), Q12805 (parent)
chain: MLKALFLTMLTLALVKSQDTEETITYTQCTDGYEWDPVRQQCKDIDECDIVPDACKGGMKCVNHYGGYLCLPKTAQIIVNNEQPQQETQPAEGTSGATTGVVAASSMATSGVLPGGGFVASAAAVAGPEMQTGRNNFVIRRNPADPQRIPSNPSHRIQCAAGYEQSEHNVCQDIDECTAGTHNCRADQVCINLRGSFACQCPPGYQKRGEQCVDIDECTIPPYCHQRCVNTPGSFYCQCSPGFQLAANNYTCVDINECDASNQCAQQCYNILGSFICQCNQGYELSSDRLNCEDIDECRTSSYLCQYQCVNEPGKFSCMCPQGYQVVRSRTCQDINECETTNECREDEMCWNYHGGFRCYPRNPCQDPYILTPENRCVCPVSNAMCRELPQSIVYKYMSIRSDRSVPSDIFQIQATTIYANTINTFRIKSGNENGEFYLRQTSPVSAMLVLVKSLSGPREHIVDLEMLTVSSIGTFRTSSVLRLTIIVGPFSF
partner: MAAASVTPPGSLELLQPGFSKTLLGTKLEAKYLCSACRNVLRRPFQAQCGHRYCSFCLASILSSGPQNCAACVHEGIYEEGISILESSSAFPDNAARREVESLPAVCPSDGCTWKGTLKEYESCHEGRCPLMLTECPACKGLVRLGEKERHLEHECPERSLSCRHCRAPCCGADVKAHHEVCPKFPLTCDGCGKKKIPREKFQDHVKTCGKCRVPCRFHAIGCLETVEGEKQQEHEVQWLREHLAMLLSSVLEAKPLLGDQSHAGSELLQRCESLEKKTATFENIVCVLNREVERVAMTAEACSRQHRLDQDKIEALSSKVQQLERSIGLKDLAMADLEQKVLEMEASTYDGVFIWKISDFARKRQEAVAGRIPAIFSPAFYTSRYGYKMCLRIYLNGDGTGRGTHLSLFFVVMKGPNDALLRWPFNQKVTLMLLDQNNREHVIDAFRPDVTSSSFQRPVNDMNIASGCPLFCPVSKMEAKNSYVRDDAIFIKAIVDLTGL
B4: Prelamin-A/C (Homo sapiens), P02545-2 (parent)
chain: METPSQRRATRSGAQASSTPLSPTRITRLQEKEDLQELNDRLAVYIDRVRSLETENAGLRLRITESEEVVSREVSGIKAAYEAELGDARKTLDSVAKERARLQLELSKVREEFKELKARNTKKEGDLIAAQARLKDLEALLNSKEAALSTALSEKRTLEGELHDLRGQVAKLEAALGEAKKQLQDEMLRRVDAENRLQTMKEELDFQKNIYSEELRETKRRHETRLVEIDNGKQREFESRLADALQELRAQHEDQVEQYKKELEKTYSAKLDNARQSAERNSNLVGAAHEELQQSRIRIDSLSAQLSQLQKQLAAKEAKLRDLEDSLARERDTSRRLLAEKEREMAEMRARMQQQLDEYQELLDIKLALDMEIHAYRKLLEGEEERLRLSPSPTSQRSRGRASSHSSQTQGGGSVTKKRKLESTESRSSFSQHARTSGRVAVEEVDEEGKFVRLRNKSNEDQSMGNWQIKRQNGDDPLLTYRFPPKFTLKAGQVVTIWAAGAGATHSPPTDLVWKAQNTWGCGNSLRTALINSTGEEVAMRKLVRSVTVVEDDEDEDGDDLLHHHHVSGSRR

Variants of: B1
Details: with TNK2, Q07912-2
Chain of TNK2, Q07912-2 (Q07912 other isoform, or with tags, fused parts or gaps): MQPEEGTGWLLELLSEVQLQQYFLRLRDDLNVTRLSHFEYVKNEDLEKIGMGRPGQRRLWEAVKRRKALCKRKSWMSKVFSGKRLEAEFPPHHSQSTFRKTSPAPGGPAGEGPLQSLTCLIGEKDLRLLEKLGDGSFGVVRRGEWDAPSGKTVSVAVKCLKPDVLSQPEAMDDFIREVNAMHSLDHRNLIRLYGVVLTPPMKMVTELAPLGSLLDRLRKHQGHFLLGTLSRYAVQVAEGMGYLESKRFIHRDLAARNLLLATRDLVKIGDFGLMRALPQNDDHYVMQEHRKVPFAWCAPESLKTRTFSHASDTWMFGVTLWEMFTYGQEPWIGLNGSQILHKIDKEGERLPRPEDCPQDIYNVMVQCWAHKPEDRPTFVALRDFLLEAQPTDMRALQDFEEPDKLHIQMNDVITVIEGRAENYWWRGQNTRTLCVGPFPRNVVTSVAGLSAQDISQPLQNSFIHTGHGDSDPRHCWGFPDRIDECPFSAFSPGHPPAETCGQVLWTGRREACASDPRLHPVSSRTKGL

Row | Variant | effect of a mutation on the interaction
1 | Y34N | with no effect

Variants of: B2
Details: with RPGRIP1, Q96KN7-4

Row | Variant | effect of a mutation on the interaction
2 | H98Q | disrupting interaction strength
3 | G436D | with no effect
4 | Q184H | with no effect

More lines, now with the values ahead:

Row | effect of a mutation on the interaction | Variant
5 | with no effect | R425K
6 | disrupting interaction strength | T255I

Variants of: B3
Details: with traf2_human TRAF2, Q12933

Row | Variant | effect of a mutation on the interaction
7 | MLKALFLTMLTLALVKSQDTEETITYTQCTDGYEWDPVRQQCKDIDECDIVPDACKGGMKCVNHYGGYLCLPKTAQIIVNNEQPQQETQPAEGTSGATTGVVAASSMATSGVLPGGGFVASAAAVAGPEMQTGRNNFVIRRNPADPQRIPSNPSHRIQCAAGYEQSEHNVCQDIDECTAGTHNCRADQVCINLRGSFACQCPPGYQKRGEQCVDIDECTIPPYCHQRCVNTPGSFYCQCSPGFQLAANNYTCVDINECDASNQCAQQCYNILGSFICQCNQGYELSSDRLNCEDIDECRTSSYLCQYQCVNEPGKFSCMCPQGYQVVRSRTCQDINECETTNECWEDEMCWNYHGGFRCYPRNPCQDPYILTPENRCVCPVSNAMCRELPQSIVYKYMSIRSDRSVPSDIFQIQATTIYANTINTFRIKSGNENGEFYLRQTSPVSAMLVLVKSLSGPREHIVDLEMLTVSSIGTFRTSSVLRLTIIVGPFSF [R345W] | with no effect

Variants of: B4
Details: with syce1_human SYCE1, Q8N0S2
Chain of syce1_human SYCE1, Q8N0S2 (Q8N0S2 whole entry): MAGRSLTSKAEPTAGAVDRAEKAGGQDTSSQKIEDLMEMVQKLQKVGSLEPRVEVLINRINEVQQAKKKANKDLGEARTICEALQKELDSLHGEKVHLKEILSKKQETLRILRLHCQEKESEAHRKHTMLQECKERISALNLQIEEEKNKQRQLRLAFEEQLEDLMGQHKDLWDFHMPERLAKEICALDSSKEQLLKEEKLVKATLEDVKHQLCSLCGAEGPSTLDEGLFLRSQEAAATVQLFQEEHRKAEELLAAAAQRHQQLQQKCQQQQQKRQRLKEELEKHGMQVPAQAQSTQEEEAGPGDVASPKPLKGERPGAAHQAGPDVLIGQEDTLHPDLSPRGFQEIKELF

Row | Variant | effect of a mutation on the interaction
8 | METPSQRRATRSGAQASSTPLSPTRITRLQEKEDLQELNDRLAVYIDRVRSLETENAGLRLRITESEEVVSREVSGIKAAYEAELGDARKTLDSVAKERARLQLELSKVREEFKELKARNTKKEGDLIAAQARLKDLEALLNSKEAALSTALSEKRTLEGEPHDLRGQVAKLEAALGEAKKQLQDEMLRRVDAENRLQTMKEELDFQKNIYSEELRETKRRHETRLVEIDNGKQREFESRLADALQELRAQHEDQVEQYKKELEKTYSAKLDNARQSAERNSNLVGAAHEELQQSRIRIDSLSAQLSQLQKQLAAKEAKLRDLEDSLARERDTSRRLLAEKEREMAEMRARMQQQLDEYQELLDIKLALDMEIHAYRKLLEGEEERLRLSPSPTSQRSRGRASSHSSQTQGGGSVTKKRKLESTESRSSFSQHARTSGRVAVEEVDEEGKFVRLRNKSNEDQSMGNWQIKRQNGDDPLLTYRFPPKFTLKAGQVVTIWAAGAGATHSPPTDLVWKAQNTWGCGNSLRTALINSTGEEVAMRKLVRSVTVVEDDEDEDGDDLLHHHHVSGSRR [L162P] | disrupting interaction strength
9 | METPSQRRATRSGAQASSTPLSPTRITRLQEKEDLQELNDRLAVYIDRVRSLETENAGLRLRITESEEVVSREVSGIKAAYEAELGDARKTLDSVAKERARLQLELSKVREEFKELKARNTKKEGDLIAAQARLKDLEALLNSKEAALSTALSEKRTLEGELHDLRGQVAKLEAALGEAKKQLQDEMLRRVDAENRLQTMKEELDFQKNIYSEELRETKRRHETRLVEIDNGKQREFESRLADALQELRAQHEDQVEQYKKELEKTYSAKLDNARQSAERNSNLVGAAHEELQQSRIRIDSLSAQLSQLQKQLAAKEAKLRDLEDSLARERDTSRRLLAEKEREMAEMRARMQQQLDEYQELLDIKLALDMEIHAYLKLLEGEEERLRLSPSPTSQRSRGRASSHSSQTQGGGSVTKKRKLESTESRSSFSQHARTSGRVAVEEVDEEGKFVRLRNKSNEDQSMGNWQIKRQNGDDPLLTYRFPPKFTLKAGQVVTIWAAGAGATHSPPTDLVWKAQNTWGCGNSLRTALINSTGEEVAMRKLVRSVTVVEDDEDEDGDDLLHHHHVSGSRR [R377L] | disrupting interaction strength

From IntAct's records for PubMed 25910212
